The text below walks through data of paper PMC6635492, “Structural basis for the adsorption of a single-stranded RNA bacteriophage” (Nature Communications, 2019).

The data set deals with the molecule itself. The data set is described as follows: cryo-EM structure; single-particle cryo-EM of MS2 virions incubated with purified F-pili for 30 min at 37 °C; grids tilted 0°, 15° or 30°; maps at 5.0 Å (whole complex), 6.2 Å (F-pilus/Mat, local mask) and 5.6 to 7.3 Å (three classes).

B1: F-pilin, subunit of the E. coli F-pilus encoded by the pOX38 plasmid (natural protein, E. coli (pOX38 plasmid), UniProt P04737 52-121, looked up)
chain: AGSSGQDLMASGNTTVKATFGKDSSVVKWVVLAEVLVGAVMYMMTKNVKFLAGFAIISVFIAVGMAVVGL
notes: F-pilin of the pOX38 (F) plasmid, mature pilin; its first five residues are printed as AGSSG; assembled as a five-start helical filament with one phospholipid per pilin; initial model PDB 5LER. numbers count on: the mature protein; Stood in the assay as the assembled filament (stoichiometric pilin-phospholipid complex); the number of subunits is not fixed; source: on the cells for cryo-ET
Turning to B1, the binding result is given as “binds”.
